For this experiment, the target named is T1, soluble human CD3 epsilon chain (human, UniProt P07766 23-126).
T1 construct: also called CD3ε
Briefly: SPR.

Our source for the Kd values is patent publication US20250066503A1, “CELL INJURY INDUCING THERAPEUTIC DRUG FOR USE IN CANCER THERAPY” (CHUGAI SEIYAKU KABUSHIKI KAISHA, priority 2016, published 2025).

T1 sequence (P07766 23-126 limits assumed): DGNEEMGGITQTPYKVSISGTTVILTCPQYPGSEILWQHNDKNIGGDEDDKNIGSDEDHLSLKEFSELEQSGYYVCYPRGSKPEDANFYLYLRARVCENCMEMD

B1: TR01H067-E22Hh/none-Hi-Kn010G3/L0222-k0 (antibody, V domains shown)
VH: QVQLVESGGGLVQPGRSLRLSCAASGFTFSNAWMHWVRQAPGKGLEWVAQIKDKSQNYATYYAESVKGRFTISRDDSKNSLYLQMNSLKTEDTAVYYCRYVHYAASYGVDAWGQGTTVTVSS
VL: DIVMTQSPLSLPVTPGEPASISCRSSQSPVHSNRNTYIQWYQQKPGQAPRLLIYKVSNRFSGVPDRFSGSGSGTDFTLKISRVEAEDVGVYYCYQGTQVPYTFGQGTKLEIKR
notes: one-arm
The molecule B1 came in with a Kd of 76.3 nM.

B2: TR01H069-E22Hh/none-Hi-Kn010G3/L0000-k0 (antibody, V domains shown)
VH: QVQLVESGGGVVQPGGSLRLSCAASGFTFSNAWMHWVRQAPGKGLEWVAQIKDKSQNYATYYAESVKGRFTISRDDSKNSLYLQMNSLKTEDTAVYYCRYVHYAASYGVDIWGQGTTVTVSS
VL: DIVMTQSPLSLPVTPGEPASISCRSSQSLVHSNRNTYLHWYQQKPGQAPRLLIYKVSNRFSGVPDRFSGSGSGTDFTLKISRVEAEDVGVYYCGQGTQVPYTFGQGTKLEIKR
notes: one-arm
As to B2, binding was characterised by a dissociation constant (Kd) of 71.1 nM.

B3: TR01H082-E22Hh/none-Hi-Kn010G3/L0011-k0 (antibody, V domains shown)
VH: QVQLVESGGGLVQPGRSLRLSCAASGFTFSNAWMHWVRQAPGKGLEWVAQIKDKSQNYATYYAESVKGRFTISRDDSKNSLYLQMNSLKTEDTAVYYCRYVHYAAGYGVDAWGQGTTVTVSS
VL: DIVMTQSPLSLPVTPGEPASISCRSSQPLVHSNRNTYLHWYQQKPGQAPRLLIYKVSNRFSGVPDRFSGSGSGTDFTLKISRVEAEDVGVYYCGQGTQVPYTFGQGTKLEIKR
notes: one-arm
B3 returned a Kd of 59.5 nM. The Kd values of the last two molecules are within 1.5-fold of each other.

B4: TR01H081-E22Hh/none-Hi-Kn010G3/L0000-k0 (antibody, V domains shown)
VH: QVQLVESGGGLVQPGRSLRLSCAASGFTFSNAWMHWVRQAPGKGLEWVAQIKDKSQNYATYYAESVKGRFTISRADSKNSIYLQMNSLKTEDTAVYYCRYVHYAAGYGVDIWGQGTTVTVSS
VL: DIVMTQSPLSLPVTPGEPASISCRSSQSLVHSNRNTYLHWYQQKPGQAPRLLIYKVSNRFSGVPDRFSGSGSGTDFTLKISRVEAEDVGVYYCGQGTQVPYTFGQGTKLEIKR
notes: one-arm
In turn, B4 came in with a Kd of 15.6 nM.

B5: TR01H068-E22Hh/none-Hi-Kn010G3/L0000-k0 (antibody, V domains shown)
VH: QVQLVESGGGVVQPGGSLRLSCAASGFTFSNAWMHWVRQAPGKGLEWVAQIKDKSQNYATYYAESVKGRFTISRDDSKNSLYLQMNSLKTEDTAVYYCRYVHYAASYGVDAWGQGTTVTVSS
VL: DIVMTQSPLSLPVTPGEPASISCRSSQSLVHSNRNTYLHWYQQKPGQAPRLLIYKVSNRFSGVPDRFSGSGSGTDFTLKISRVEAEDVGVYYCGQGTQVPYTFGQGTKLEIKR
notes: one-arm
B5: binding was characterised by a dissociation constant (Kd) of 101 nM.

B6: TR01H082-E22Hh/none-Hi-Kn010G3/L0222-k0 (antibody, V domains shown)
VH: QVQLVESGGGLVQPGRSLRLSCAASGFTFSNAWMHWVRQAPGKGLEWVAQIKDKSQNYATYYAESVKGRFTISRDDSKNSLYLQMNSLKTEDTAVYYCRYVHYAAGYGVDAWGQGTTVTVSS
VL: DIVMTQSPLSLPVTPGEPASISCRSSQSPVHSNRNTYIQWYQQKPGQAPRLLIYKVSNRFSGVPDRFSGSGSGTDFTLKISRVEAEDVGVYYCYQGTQVPYTFGQGTKLEIKR
notes: one-arm
Molecule B6 had a Kd of 101 nM.

B7: TR01H072-E22Hh/none-Hi-Kn010G3/L0000-k0 (antibody, V domains shown)
VH: QVQLVESGGGLVQPGRSLRLSCAASGFTFSNAWMHWVRQAPGKGLEWVAQIKDKSQNYATYYAESVKGRFTISRADSKNSIYLQMNSLKTEDTAVYYCRYVHYAASYGVDIWGQGTTVTVSS
VL: DIVMTQSPLSLPVTPGEPASISCRSSQSLVHSNRNTYLHWYQQKPGQAPRLLIYKVSNRFSGVPDRFSGSGSGTDFTLKISRVEAEDVGVYYCGQGTQVPYTFGQGTKLEIKR
notes: one-arm
In the case of B7, the affinity, expressed as Kd, was 20.3 nM.

B8: TR01H082-E22Hh/none-Hi-Kn010G3/L0212-k0 (antibody, V domains shown)
VH: QVQLVESGGGLVQPGRSLRLSCAASGFTFSNAWMHWVRQAPGKGLEWVAQIKDKSQNYATYYAESVKGRFTISRDDSKNSLYLQMNSLKTEDTAVYYCRYVHYAAGYGVDAWGQGTTVTVSS
VL: DIVMTQSPLSLPVTPGEPASISCRPSQSPVHSNRNTYLHWYQQKPGQAPRLLIYKVSNRFSGVPDRFSGSGSGTDFTLKISRVEAEDVGVYYCYQGTQVPYTFGQGTKLEIKR
notes: one-arm
Molecule B8 registered a dissociation constant (Kd) of 4.75 nM.

B9: TR01H081-E22Hh/none-Hi-Kn010G3/L0201-k0 (antibody, V domains shown)
VH: QVQLVESGGGLVQPGRSLRLSCAASGFTFSNAWMHWVRQAPGKGLEWVAQIKDKSQNYATYYAESVKGRFTISRADSKNSIYLQMNSLKTEDTAVYYCRYVHYAAGYGVDIWGQGTTVTVSS
VL: DIVMTQSPLSLPVTPGEPASISCRSSQPPVHSNRNTYLHWYQQKPGQAPRLLIYKVSNRFSGVPDRFSGSGSGTDFTLKISRVEAEDVGVYYCGQGTQVPYTFGQGTKLEIKR
notes: one-arm
In turn, B9 had a Kd of 9.46 nM.

B10: TR01H082-E22Hh/none-Hi-Kn010G3/L0201-k0 (antibody, V domains shown)
VH: QVQLVESGGGLVQPGRSLRLSCAASGFTFSNAWMHWVRQAPGKGLEWVAQIKDKSQNYATYYAESVKGRFTISRDDSKNSLYLQMNSLKTEDTAVYYCRYVHYAAGYGVDAWGQGTTVTVSS
VL: DIVMTQSPLSLPVTPGEPASISCRSSQPPVHSNRNTYLHWYQQKPGQAPRLLIYKVSNRFSGVPDRFSGSGSGTDFTLKISRVEAEDVGVYYCGQGTQVPYTFGQGTKLEIKR
notes: one-arm
In the case of B10, the dissociation constant (Kd) came to 44.9 nM.

B11: TR01H082-E22Hh/none-Hi-Kn010G3/L0203-k0 (antibody, V domains shown)
VH: QVQLVESGGGLVQPGRSLRLSCAASGFTFSNAWMHWVRQAPGKGLEWVAQIKDKSQNYATYYAESVKGRFTISRDDSKNSLYLQMNSLKTEDTAVYYCRYVHYAAGYGVDAWGQGTTVTVSS
VL: DIVMTQSPLSLPVTPGEPASISCRSSQSPVHSNRNTYIHWYQQKPGQAPRLLIYKVSNRFSGVPDRFSGSGSGTDFTLKISRVEAEDVGVYYCGQGTQVPYTFGQGTKLEIKR
notes: one-arm
B11 showed a Kd of 40.7 nM. This Kd and that of the molecule before are within 1.5-fold of each other.

B12: TR01H074-E22Hh/none-Hi-Kn010G3/L0000-k0 (antibody, V domains shown)
VH: QVQLVESGGGVVQPGGSLRLSCAASGFTFSNAWMHWVRQAPGKGLEWVAQIKDKSQNYATYYAESVKGRFTISRADSKNSIYLQMNSLKTEDTAVYYCRYVHYAASYGVDIWGQGTTVTVSS
VL: DIVMTQSPLSLPVTPGEPASISCRSSQSLVHSNRNTYLHWYQQKPGQAPRLLIYKVSNRFSGVPDRFSGSGSGTDFTLKISRVEAEDVGVYYCGQGTQVPYTFGQGTKLEIKR
notes: one-arm
As for B12, the Kd was 29.1 nM.

B13: TR01H075-E22Hh/none-Hi-Kn010G3/L0000-k0 (antibody, V domains shown)
VH: QVQLVESGGGLVQPGRSLRLSCAASGFTFSNAWMHWVRQAPGKGLEWVAQIKDKSQNYATYYAESVKGRFTISRDDSKNSLYLQMNSLKTEDTAVYYCRYVHYAASYGVDYWGQGTTVTVSS
VL: DIVMTQSPLSLPVTPGEPASISCRSSQSLVHSNRNTYLHWYQQKPGQAPRLLIYKVSNRFSGVPDRFSGSGSGTDFTLKISRVEAEDVGVYYCGQGTQVPYTFGQGTKLEIKR
notes: one-arm
B13 returned a Kd of 98.8 nM. This Kd is about 3.4-fold higher than that of the molecule before.

B14: TR01H071-E22Hh/none-Hi-Kn010G3/L0000-k0 (antibody, V domains shown)
VH: QVQLVESGGGLVQPGRSLRLSCAASGFTFSNAWMHWVRQAPGKGLEWVAQIKDKSNNYATYYAESVKGRFTISRADSKNSIYLQMNSLKTEDTAVYYCRYVHYAASYGVDIWGQGTTVTVSS
VL: DIVMTQSPLSLPVTPGEPASISCRSSQSLVHSNRNTYLHWYQQKPGQAPRLLIYKVSNRFSGVPDRFSGSGSGTDFTLKISRVEAEDVGVYYCGQGTQVPYTFGQGTKLEIKR
notes: one-arm
The molecule B14 yielded a Kd of 8.85 nM.

B15: TR01H081-E22Hh/none-Hi-Kn010G3/L0011-k0 (antibody, V domains shown)
VH: QVQLVESGGGLVQPGRSLRLSCAASGFTFSNAWMHWVRQAPGKGLEWVAQIKDKSQNYATYYAESVKGRFTISRADSKNSIYLQMNSLKTEDTAVYYCRYVHYAAGYGVDIWGQGTTVTVSS
VL: DIVMTQSPLSLPVTPGEPASISCRSSQPLVHSNRNTYLHWYQQKPGQAPRLLIYKVSNRFSGVPDRFSGSGSGTDFTLKISRVEAEDVGVYYCGQGTQVPYTFGQGTKLEIKR
notes: one-arm
Regarding B15, binding was characterised by a dissociation constant (Kd) of 13.5 nM.

B16: TR01H073-E22Hh/none-Hi-Kn010G3/L0000-k0 (antibody, V domains shown)
VH: QVQLVESGGGLVQPGRSLRLSCAASGFTFSNAWMHWVRQAPGKGLEWVAQIKDKSQNYATYYAESVKGRFTISRDDSKNSLYLQMNSLKTEDTAVYYCRYVHYAASYGVDIWGQGTTVTVSS
VL: DIVMTQSPLSLPVTPGEPASISCRSSQSLVHSNRNTYLHWYQQKPGQAPRLLIYKVSNRFSGVPDRFSGSGSGTDFTLKISRVEAEDVGVYYCGQGTQVPYTFGQGTKLEIKR
notes: one-arm
In the case of B16, the Kd was 59.7 nM.

B17: TR01H083-E22Hh/none-Hi-Kn010G3/L0000-k0 (antibody, V domains shown)
VH: QVQLVESGGGLVQPGRSLRLSCAASGFTFSNAWMHWVRQAPGKGLEWVAQIKDKSNNYATYYAESVKGRFTISRADSKNSIYLQMNSLKTEDTAVYYCRYVHYAAGYGVDIWGQGTTVTVSS
VL: DIVMTQSPLSLPVTPGEPASISCRSSQSLVHSNRNTYLHWYQQKPGQAPRLLIYKVSNRFSGVPDRFSGSGSGTDFTLKISRVEAEDVGVYYCGQGTQVPYTFGQGTKLEIKR
notes: one-arm
B17 gave a dissociation constant (Kd) of 6.83 nM.

B18: TR01H071-E22Hh/none-Hi-Kn010G3/L0222-k0 (antibody, V domains shown)
VH: QVQLVESGGGLVQPGRSLRLSCAASGFTFSNAWMHWVRQAPGKGLEWVAQIKDKSNNYATYYAESVKGRFTISRADSKNSIYLQMNSLKTEDTAVYYCRYVHYAASYGVDIWGQGTTVTVSS
VL: DIVMTQSPLSLPVTPGEPASISCRSSQSPVHSNRNTYIQWYQQKPGQAPRLLIYKVSNRFSGVPDRFSGSGSGTDFTLKISRVEAEDVGVYYCYQGTQVPYTFGQGTKLEIKR
notes: one-arm
B18: the Kd was determined as 10.4 nM.

B19: TR01H076-E22Hh/none-Hi-Kn010G3/L0000-k0 (antibody, V domains shown)
VH: QVQLVESGGGVVQPGGSLRLSCAASGFTFSNAWMHWVRQAPGKGLEWVAQIKDKSQNYATYYAESVKGRFTISRADSKNSIYLQMNSLKTEDTAVYYCRYVHYAASYGVDYWGQGTTVTVSS
VL: DIVMTQSPLSLPVTPGEPASISCRSSQSLVHSNRNTYLHWYQQKPGQAPRLLIYKVSNRFSGVPDRFSGSGSGTDFTLKISRVEAEDVGVYYCGQGTQVPYTFGQGTKLEIKR
notes: one-arm
B19 registered a Kd of 47.8 nM.

B20: TR01H082-E22Hh/none-Hi-Kn010G3/L0000-k0 (antibody, V domains shown)
VH: QVQLVESGGGLVQPGRSLRLSCAASGFTFSNAWMHWVRQAPGKGLEWVAQIKDKSQNYATYYAESVKGRFTISRDDSKNSLYLQMNSLKTEDTAVYYCRYVHYAAGYGVDAWGQGTTVTVSS
VL: DIVMTQSPLSLPVTPGEPASISCRSSQSLVHSNRNTYLHWYQQKPGQAPRLLIYKVSNRFSGVPDRFSGSGSGTDFTLKISRVEAEDVGVYYCGQGTQVPYTFGQGTKLEIKR
notes: one-arm
As to B20, the affinity, expressed as Kd, was 73.7 nM.

B21: TR01H070-E22Hh/none-Hi-Kn010G3/L0000-k0 (antibody, V domains shown)
VH: QVQLVESGGGVVQPGGSLRLSCAASGFTFSNAWMHWVRQAPGKGLEWVAQIKDKSQNYATYYAESVKGRFTISRDDSKNSLYLQMNSLKTEDTAVYYCRYVHYAASYGVDYWGQGTTVTVSS
VL: DIVMTQSPLSLPVTPGEPASISCRSSQSLVHSNRNTYLHWYQQKPGQAPRLLIYKVSNRFSGVPDRFSGSGSGTDFTLKISRVEAEDVGVYYCGQGTQVPYTFGQGTKLEIKR
notes: one-arm
B21: binding was characterised by a dissociation constant (Kd) of 120 nM.

In general, Kd refers to a measure of binding affinity in units of concentration. Read a high Kd as weaker binding.
